Assay results published in US20190359693A1 (Janssen / Centocor, published 2019).
Where a chain is given by its changes, count along the chain named. Like-named read-outs stand apart in the source and are kept apart here.

Tests used:
[1] = biological target: T1, HA of H3N2 A/HK/1/68 (influenza A virus, UniProt Q91MA7 17-530); experiment: BLI (Octet)
[2] = biological target: HA of H3N2 A/HK/1/68-MA (influenza A virus); experiment: cell-based or functional assay
[3] = biological target: HA of H2N2 A/Guiyang/1/57 (influenza A virus); experiment: cell-based or functional assay
[4] = biological target: HA of H2N2 A/WF/HK/MPU3156/05 (influenza A virus); experiment: cell-based or functional assay
[5] = biological target: HA of H4 A/WF/HK/MPA892/06 (influenza A virus); experiment: cell-based or functional assay
[6] = biological target: HA of H10N7 A/Chick/Germany/N/49 (influenza A virus); experiment: cell-based or functional assay
[7] = biological target: HA of B/Malaysia/2506/04 (Victoria) (influenza B virus); experiment: cell-based or functional assay
[8] = biological target: HA of B/Harbin/7/94 (Yamagata) (influenza B virus); experiment: cell-based or functional assay
[9] = biological target: T2, HA of B/Lee/40 (influenza B virus, UniProt P03460 16-552); experiment: cell-based or functional assay
[10] = biological target: HA of B/Harbin/7/94 (Yamagata) (influenza B virus); experiment: cell-based or functional assay; remark: listed apart in the source
[11] = biological target: HA of H5N1 A/Vietnam/1194/04 (influenza A virus); experiment: cell-based or functional assay
[12] = biological target: T2, HA of B/Lee/40; experiment: cell-based or functional assay; remark: listed apart in the source
[13] = biological target: HA of H7N9 A/Anhui/1/13 (influenza A virus); experiment: cell-based or functional assay
[14] = biological target: HA of H1N1 A/Puerto Rico/8/34-MA (influenza A virus); experiment: cell-based or functional assay
[15] = biological target: HA of H5N1 A/PR8 H5N1 HK97 (influenza A virus); experiment: cell-based or functional assay
[16] = biological target: HA of H3N2 A/HK/1/68-MA (influenza A virus); experiment: cell-based or functional assay; remark: listed apart in the source
[17] = biological target: T1, HA of H3N2 A/HK/1/68; experiment: cell-based or functional assay
[18] = biological target: HA of H3N2 A/Wisconsin/67/2005 (influenza A virus); experiment: cell-based or functional assay
[19] = biological target: HA of H3N2 A/Panama/2007/99 (influenza A virus); experiment: cell-based or functional assay
[20] = biological target: HA of H4 A/WF/HK/MPA892/06 (influenza A virus); experiment: cell-based or functional assay; remark: listed apart in the source
[21] = biological target: HA of H7N7 A/PR8 H7N7-NY (influenza A virus); experiment: cell-based or functional assay
[22] = biological target: HA of H10N7 A/Chick/Germany/N/49 (influenza A virus); experiment: cell-based or functional assay; remark: listed apart in the source
[23] = biological target: HA of H7N7 A/Netherlands/219/2003 (influenza A virus, UniProt P36346 19-563); experiment: AlphaLISA competition vs CR9114
[24] = biological target: HA of H1N1 A/Brisbane/59/07 (influenza A virus); experiment: cell-based or functional assay
[25] = biological target: T1, HA of H3N2 A/HK/1/68; experiment: cell-based or functional assay; remark: listed apart in the source
[26] = biological target: HA of H4 A/WF/HK/MPA892/06 (influenza A virus); experiment: cell-based or functional assay; remark: listed apart in the source
[27] = biological target: HA of H7N7 A/PR8 H7N7-NY (influenza A virus); experiment: cell-based or functional assay; remark: listed apart in the source
[28] = biological target: HA of H10N7 A/Chick/Germany/N/49 (influenza A virus); experiment: cell-based or functional assay; remark: listed apart in the source
[29] = biological target: HA of H3N2 A/Panama/2007/99 (influenza A virus); experiment: cell-based or functional assay; remark: listed apart in the source
[30] = biological target: HA of H7N7 A/PR8 H7N7-NY (influenza A virus); experiment: cell-based or functional assay; remark: listed apart in the source
[31] = biological target: HA of H5N1 A/Vietnam/1194/04 (influenza A virus); experiment: cell-based or functional assay; remark: listed apart in the source
[32] = biological target: HA of H3N2 A/Brisbane/10/2007 (influenza A virus); experiment: cell-based or functional assay

B1: SD1076 (VHH)
VHH: EVQLVESGGGLVQAGGSLTLSCAGSGFAFSIATMGWYRQAPGKQRELVADITSGGSTNYADSVKGRFTISRDNAKNTVYLQMNSLKPEDTAVYYCNADSLATGWRQYSYWGKGTQVTVSS
notes: llama sdAb
In the case of B1, the binding result [1] is reported as “no binding (tested: HA 20 µg/mL)”, the VNA titer [2] is reported as > 1000 nM and the VNA titer [3] is reported as > 1000 nM. The VNA titer [4] was 38.5 nM, the VNA titer [5] was > 1000 nM and the VNA titer [6] was > 1000 nM.

B2: SD1087 (VHH)
VHH: EVQLVESGGGLVQPGGSLRLSCVISGLSLDTYAVGWFRQAPGKEREGITCISSGHGMTYYADSVKGRFTVSTDNAKNTVYLQMNGLQPEDTARYYCATESRYYCSDNWPAPQRYIYWGQGTQVTVSS
B2 was tested, and the VNA titer [7] was 79.1 nM, the VNA titer [8] was 503 nM and the VNA titer [9] was 6.5 nM. The hemagglutination inhibition titer [10] was > 50 µg/mL, the hemagglutination inhibition titer [11] was > 50 µg/mL and the hemagglutination inhibition titer [12] was > 50 µg/mL.

B3: SD1083 (VHH)
VHH: EVQLVESGGGLVQPGGSLRLSCAATGFTLENKAIGWFRQTPGSEREGVLCISKSGSWTYYTDSMRGRFTISRDNAENTVYLQMDSLKPEDTAVYYCATTTAGGGLCWDGTTFSRLASSWGQGTQVTVSS
With B3 the VNA titer [7] was 294 nM, the VNA titer [8] was 259 nM and the VNA titer [9] was 217 nM. For the same binder, the hemagglutination inhibition titer [10] was > 50 µg/mL, the hemagglutination inhibition titer [11] was > 50 µg/mL and the hemagglutination inhibition titer [12] was > 50 µg/mL.

B4: SD1046 (VHH)
VHH: EVQLVESGGGLVQAGDSLRISCAASGRTLSIYSMGWFRQAPGKEREFVATIGWNSGRTFYPDSLKGRFTISRDNARNTLYLQMNNLRPEDTAVYYCAAAKGPLRLSSQADYWGQGTQVTVSS
In the case of B4, the VNA titer [13] is reported as 46.1 nM, the VNA titer [14] is reported as > 1000 nM and the VNA titer [15] is reported as > 1000 nM. The VNA titer [16] was 26.4 nM, the VNA titer [17] was 202 nM and the VNA titer [18] was > 1000 nM. The VNA titer [19] was > 1000 nM, the VNA titer [20] was 34.3 nM and the VNA titer [21] was 25.9 nM. The VNA titer [22] was 34.3 nM.

B5: SD1014 (VHH)
VHH: EVQLVESGGGLVQAGGSLTLSCAASGRTYAMAWFRQAPGKEREFVAHINALGTRTYYSDSVKGRFTISRDNAKNTEYLQMNSLNPEDTAVYYCAAGGQWRAAPVADAAQYDFWGQGTQVTVSS
notes: llama sdAb
B5 was tested, and the VNA titer [14] was > 1000 nM, the VNA titer [16] was > 1000 nM and the pIC50 [23] was 9.2.

B6: SD1047 (VHH)
VHH: B5 VHH with T19R, L20I, G63D, N84K, A94V, D106A, A108E, Q109S
In the case of B6, the VNA titer [14] is reported as > 1000 nM, the VNA titer [16] is reported as > 1000 nM and the VNA titer [24] is reported as > 1000 nM.

B7: SD1045 (VHH)
VHH: EVQLVESGGGLVQAGGSLRLSCAASGSSFSINVMGWYRQAPGKQREMVATITYGGSTNYVDSVKGRFTISRDNAKNTVYLQMNSLKPEDTAVYYCNSRLAQINYWGQGTQVTVSS
notes: llama sdAb
With B7 the binding result [1] was “no binding (tested: HA 20 µg/mL)”, the VNA titer [25] was > 1000 nM and the VNA titer [26] was 492 nM. The VNA titer [27] was > 1000 nM and the VNA titer [28] was 985 nM.

B8: SD1048 (VHH)
VHH: EVQLVESGGGVVQPGGSLRLSCVASGRTSSMYSIGWFRQAPGKEREFVAVIGWYSGRTFYTDSMKGRFTISRDNARNTVYLQMNSLKPEDTAVYYCAAANGPLRLSNQADYWGQGTQVTVSS
In the case of B8, the VNA titer [14] is reported as > 1000 nM, the VNA titer [15] is reported as > 1000 nM and the VNA titer [16] is reported as 110 nM. The VNA titer [18] was > 1000 nM, the VNA titer [19] was > 1000 nM and the VNA titer [20] was 34.3 nM. It also gave a VNA titer [21] of 93 nM and a VNA titer [22] of 34.3 nM.

B9: SD1016 (VHH)
VHH: EVQLVESGGGLVQAGGSLRLSCVASGMFFGIAAMGWYRQAPGKQRELVANITSDFSTNYADSVKDRFTISRDNAENTVYLQMNSLKPEDTAVYYCAADSLGTGWRHYYYWGQGTQVTVSS
notes: llama sdAb
B9 was tested, and the binding result [1] was “no binding (tested: HA 20 µg/mL)”, the VNA titer [2] was > 1000 nM and the VNA titer [29] was > 1000 nM. The VNA titer [5] was > 1000 nM, the VNA titer [30] was > 1000 nM and the VNA titer [6] was > 1000 nM.

B10: SD1035 (VHH)
VHH: EVQLVESGGGLVQAGGTLRLSCAASGSAVSISRMAWYRQAPGKQRELVADIFSGGGTNYADSVKGRFTISRDNAKNTVDLQMNSLKPEDTAVYYCSARSAVAAIHWDQYDYWGQGTQVTVSS
notes: llama sdAb
In the case of B10, the binding result [1] is reported as “no binding (tested: HA 20 µg/mL)”, the VNA titer [31] is reported as > 1000 nM and the VNA titer [32] is reported as > 1000 nM.
